Assays:
Assay in all cases: cell-based or functional assay
[1] = target: HIV-1 Env of strain THRO4156.18 (HIV-1)
[2] = target: HIV-1 Env of strain T278-50 (HIV-1)
[3] = target: Env of HIV-1 strain TRJO4551.58 (HIV-1)
[4] = target: HIV-1 Env of strain 89-F1_2_25 (HIV-1)
[5] = target: Env of HIV-1 strain C2101.c01 (HIV-1)
[6] = target: HIV-1 Env of strain TRO.11 (HIV-1)
[7] = target: HIV-1 Env of strain P1981_C5_3 (HIV-1)
[8] = target: Env of HIV-1 strain 1012_11_TC21_3257 (HIV-1)
[9] = target: HIV-1 Env of strain R1166.c01 (HIV-1)
[10] = target: HIV-1 Env of strain HIV-001428-2.42 (HIV-1)
[11] = target: HIV-1 Env of strain Q259.d2.17 (HIV-1)
[12] = target: Env of HIV-1 strain Q259.d2.17 (HIV-1)
[13] = target: HIV-1 Env of strain Du422.1 (HIV-1)
[14] = target: Env of HIV-1 strain 191955_A11 (HIV-1)
[15] = target: HIV-1 Env of strain Ce704809221_1B3 (HIV-1)
[16] = target: HIV-1 Env of strain AC10.0.29 (HIV-1)
[17] = target: Env of HIV-1 strain T251-18 (HIV-1)
[18] = target: HIV-1 Env of strain 231965.c01 (HIV-1)
[19] = target: Env of HIV-1 strain C4118.c09 (HIV-1)
[20] = target: HIV-1 Env of strain 191821_E6_1 (HIV-1)
[21] = target: Env of HIV-1 strain TRO.11 (HIV-1)
[22] = target: HIV-1 Env of strain T250-4 (HIV-1)
[23] = target: HIV-1 Env of strain 191955_A11 (HIV-1)
[24] = target: Env of HIV-1 strain CNE17 (HIV-1)
[25] = target: Env of HIV-1 strain BF1266.431a (HIV-1)
[26] = target: Env of HIV-1 strain Ce2060_G9 (HIV-1)
[27] = target: HIV-1 Env of strain 3301.v1.c24 (HIV-1)
[28] = target: Env of HIV-1 strain SC05_8C11_2344 (HIV-1)
[29] = target: HIV-1 Env of strain Du156.12 (HIV-1)

Chain of NIH45-46 (antibody) (VH): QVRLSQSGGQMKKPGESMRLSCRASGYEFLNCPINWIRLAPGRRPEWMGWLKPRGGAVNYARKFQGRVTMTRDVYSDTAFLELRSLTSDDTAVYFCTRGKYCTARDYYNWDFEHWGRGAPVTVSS
Chain of NIH45-46 (antibody) (V domain): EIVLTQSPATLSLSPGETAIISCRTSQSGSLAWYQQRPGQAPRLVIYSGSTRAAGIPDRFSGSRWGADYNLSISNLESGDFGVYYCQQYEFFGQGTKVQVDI

NIH45-46 (antibody)
IC50, pseudovirus neutralization [1]: 1.91 µg/mL
IC50, pseudovirus neutralization [2]: > 50 µg/mL
IC80 [3]: 0.13 µg/mL
IC50, pseudovirus neutralization [4]: > 50 µg/mL
IC80 [5]: 31.4 µg/mL
IC50, pseudovirus neutralization [6]: 1.61 µg/mL
IC50, pseudovirus neutralization [7]: 0.08 µg/mL
IC80 [8]: 0.04 µg/mL
IC50, pseudovirus neutralization [9]: 0.31 µg/mL
IC50, pseudovirus neutralization [10]: 0.001 µg/mL
IC50, pseudovirus neutralization [11]: 0.043 µg/mL
IC80 [12]: 0.154 µg/mL
IC50, pseudovirus neutralization [13]: > 50 µg/mL
IC80 [14]: 0.43 µg/mL
IC50, pseudovirus neutralization [15]: 0.15 µg/mL
IC50, pseudovirus neutralization [16]: 0.56 µg/mL
IC80 [17]: 3.68 µg/mL
IC50, pseudovirus neutralization [18]: 0.051 µg/mL
IC80 [19]: 0.91 µg/mL
IC50, pseudovirus neutralization [20]: 0.09 µg/mL
IC80 [21]: 7.49 µg/mL
IC50, pseudovirus neutralization [22]: > 50 µg/mL
IC50, pseudovirus neutralization [23]: 0.11 µg/mL
IC80 [24]: 0.734 µg/mL
IC80 [25]: 0.03 µg/mL
IC80 [26]: 0.29 µg/mL
IC50, pseudovirus neutralization [27]: 0.009 µg/mL
IC80 [28]: 0.38 µg/mL
IC50, pseudovirus neutralization [29]: 0.02 µg/mL
